Columns and labels:
TFAM (mature) [1] = target: T1, TFAM (mature) (human, UniProt Q00059 43-246); test: EMSA; EMSA: 25 mM Tris-HCl pH 7.0, 90 mM NaCl, 1 mM DTT, 3% glycerol, 0.01% Tween20, 30 min, room temperature; G4s mostly prefolded in 10 mM cacodylate pH 6.5, 100 mM KCl; settings: protein: recombinant, tags: C-terminal 6xHis
T1 sequence: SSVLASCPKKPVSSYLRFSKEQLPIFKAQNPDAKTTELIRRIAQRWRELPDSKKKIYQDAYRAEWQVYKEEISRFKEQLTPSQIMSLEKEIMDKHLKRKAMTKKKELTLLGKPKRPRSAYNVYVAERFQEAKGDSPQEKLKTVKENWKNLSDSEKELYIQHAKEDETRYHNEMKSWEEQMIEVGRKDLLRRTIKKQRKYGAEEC

TFAM (mature) [2] = target: T1, TFAM (mature); test: EMSA; single shift; EMSA: 25 mM Tris-HCl pH 7.0, 90 mM NaCl, 1 mM DTT, 3% glycerol, 0.01% Tween20, 30 min, room temperature; G4s mostly prefolded in 10 mM cacodylate pH 6.5, 100 mM KCl; settings: protein: recombinant; tags: C-terminal 6xHis; G4 tetramer of 4 strands
TFAM (mature) [3] = target: T1, TFAM (mature); test: competition; vs 32P CSBII G4-DNA/RNA; EMSA: 25 mM Tris-HCl pH 7.0, 90 mM NaCl, 1 mM DTT, 3% glycerol, 0.01% Tween20, 30 min, room temperature; G4s mostly prefolded in 10 mM cacodylate pH 6.5, 100 mM KCl; settings: protein: recombinant; tags: C-terminal 6xHis; duplex
TFAM (mature) [4] = target: T1, TFAM (mature); test: intrinsic fluorescence quenching; EMSA: 25 mM Tris-HCl pH 7.0, 90 mM NaCl, 1 mM DTT, 3% glycerol, 0.01% Tween20, 30 min, room temperature; G4s mostly prefolded in 10 mM cacodylate pH 6.5, 100 mM KCl; settings: protein: recombinant, tags: C-terminal 6xHis
TFAM (mature) [5] = target: T1, TFAM (mature); test: EMSA; similar to unmodified c-myc; EMSA: 25 mM Tris-HCl pH 7.0, 90 mM NaCl, 1 mM DTT, 3% glycerol, 0.01% Tween20, 30 min, room temperature; G4s mostly prefolded in 10 mM cacodylate pH 6.5, 100 mM KCl; settings: protein: recombinant; tags: C-terminal 6xHis; intramolecular G4
TFAM (mature);TFAM HMG1 = target: T2, TFAM (mature);TFAM HMG1 (human;human, UniProt Q00059;Q00059 43-246;43-125, |); test: EMSA; one TFAM and one HMG1 per G4; EMSA: 25 mM Tris-HCl pH 7.0, 90 mM NaCl, 1 mM DTT, 3% glycerol, 0.01% Tween20, 30 min, room temperature; G4s mostly prefolded in 10 mM cacodylate pH 6.5, 100 mM KCl; settings: protein: recombinant;recombinant; tags: C-terminal 6xHis;; label: 5' 32P or SybrGold; G4 parallel tetramer of 4 strands
T2 sequence 1: T1 sequence
T2 sequence 2: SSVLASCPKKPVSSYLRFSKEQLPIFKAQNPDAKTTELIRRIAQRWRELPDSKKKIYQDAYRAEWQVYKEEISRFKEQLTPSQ

TFAM (mature) [6] = target: T1, TFAM (mature); test: EMSA; microscopic k1, two-site fit; EMSA: 25 mM Tris-HCl pH 7.0, 90 mM NaCl, 1 mM DTT, 3% glycerol, 0.01% Tween20, 30 min, room temperature; G4s mostly prefolded in 10 mM cacodylate pH 6.5, 100 mM KCl; settings: protein: recombinant; tags: C-terminal 6xHis; label: 5' 32P or SybrGold; G4 parallel tetramer of 4 strands
TFAM (mature) [7] = target: T1, TFAM (mature); test: competition; vs 32P-dsLSP22; EMSA: 25 mM Tris-HCl pH 7.0, 90 mM NaCl, 1 mM DTT, 3% glycerol, 0.01% Tween20, 30 min, room temperature; G4s mostly prefolded in 10 mM cacodylate pH 6.5, 100 mM KCl; settings: protein: recombinant; tags: C-terminal 6xHis; label: 5' 32P or SybrGold; G4 parallel tetramer of 4 strands
TFAM (mature) [8] = target: T1, TFAM (mature); test: competition; homo-competition, 32P-G4-LSP22H; EMSA: 25 mM Tris-HCl pH 7.0, 90 mM NaCl, 1 mM DTT, 3% glycerol, 0.01% Tween20, 30 min, room temperature; G4s mostly prefolded in 10 mM cacodylate pH 6.5, 100 mM KCl; settings: protein: recombinant; tags: C-terminal 6xHis; label: 5' 32P or SybrGold; G4 parallel tetramer of 4 strands
TFAM (mature) [9] = target: T1, TFAM (mature); test: EMSA; microscopic k2, two-site fit; k12 0.58; EMSA: 25 mM Tris-HCl pH 7.0, 90 mM NaCl, 1 mM DTT, 3% glycerol, 0.01% Tween20, 30 min, room temperature; G4s mostly prefolded in 10 mM cacodylate pH 6.5, 100 mM KCl; settings: protein: recombinant; tags: C-terminal 6xHis; label: 5' 32P or SybrGold; G4 parallel tetramer of 4 strands
[10] = target: T3, TFAM (mature);TFAM HMG1-L (human;human, UniProt Q00059;Q00059 43-246;43-152, |); test: EMSA; one TFAM and one or two HMG1-L per G4; EMSA: 25 mM Tris-HCl pH 7.0, 90 mM NaCl, 1 mM DTT, 3% glycerol, 0.01% Tween20, 30 min, room temperature; G4s mostly prefolded in 10 mM cacodylate pH 6.5, 100 mM KCl; settings: protein: recombinant;recombinant; tags: C-terminal 6xHis;N-terminal His; label: 5' 32P or SybrGold; G4 parallel tetramer of 4 strands
T3 sequence 1: T1 sequence
T3 sequence 2: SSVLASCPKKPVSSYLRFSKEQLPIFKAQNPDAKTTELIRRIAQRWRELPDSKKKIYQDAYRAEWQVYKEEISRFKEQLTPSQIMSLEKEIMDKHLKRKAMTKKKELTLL

[11] = label: 5' 32P, G4 tetramer of 4 strands
[12] = label: 5' 32P or SybrGold, G4 parallel tetramer of 4 strands

With GAAGCGGGGGAGGGGGGGUUUGGUGGAAAU (structured_RNA) [CSBII G4-RNA] the Kd (TFAM (mature) [1]; label: 5' 32P, G4 bimolecular) was 1.25 nM.

TGGGGGGT (structured_DNA) [(TG6T)4]: no binding (TFAM (mature) [1]; G4 tetramer of 4 strands).

B1: CSBII G4-DNA/RNA (mixed)
DNA: GAAGCGGGGGAGGGGGGGTTTGGTGGAAAT
RNA: GAAGCGGGGGAGGGGGGGUUUGGUGGAAAU
B1 showed a Kd (TFAM (mature) [1]; label: 5' 32P, hybrid G4 bimolecular) of 1.85 nM.

TAGTTGGGGGGT (structured_DNA) [(TAGTTG6T)4]: binds (TFAM (mature) [2]).

With TGGGGGGTGACT (structured_DNA) [(TG6TGACT)4] the Kd (TFAM (mature) [2]) was 5 nM.

Binder GAAGCGGGGGAGGGGGGGTTTGGTGGAAAT (structured_DNA) [CSBII G4-DNA (EMSA)] has a Kd (TFAM (mature) [1]; label: 5' 32P, G4, purified bimolecular) of 3.65 nM.

ACAGGGGTGTGGGGACAGGGGTGTGGGG (structured_DNA) [ILPR G4] gave a Kd (TFAM (mature) [1]; label: 5' 32P, intramolecular G4, mostly antiparallel by CD) of 118 nM.

B2: CSBII DNA/RNA heteroduplex competitor (DNA:RNA)
RNA: B1 RNA
DNA: ATTTCCACCAAACCCCCCCTCCCCCGCTTC
With B2 the binding signal (TFAM (mature) [3]) was ~80 % free probe at 500-fold excess.

With AATAATGTGTTAGTTGGGGGGTG (structured_DNA) [G4-LSPas] the binding signal (TFAM (mature) [4]; [11]) was about 70 % Trp quenching and the Kd (TFAM (mature) [1]; [11]) was 0.89 nM.

B3: dsLSP22 (dsDNA)
DNA 1: GTTAGTTGGGGGGTGACTGTTA
DNA 2: TAACAGTCACCCCCCAACTAAC
B3 showed a binding signal (TFAM (mature) [4]; label: 5' 32P (EMSA), blunt) of about 50 % Trp quenching and a Kd (TFAM (mature) [1]; label: 5' 32P (EMSA), blunt) of 9.2 nM.

TCTGAGGGTGGGTAGGGTGGGTAACT (structured_DNA) [c-myc G4 extended]: binds (TFAM (mature) [5]).

In the case of GTTAGTTGGGGGGTGACTGTTA (structured_DNA) [G4-LSP22H], the binding result (TFAM (mature);TFAM HMG1) is reported as “binds”, the binding signal (TFAM (mature) [4]; [12]) is reported as about 70 % Trp quenching and the Ka (TFAM (mature) [6]) is reported as 0.61 ± 0.12 10^9 M^-1. For the same binder, the binding signal (TFAM (mature) [7]) was 1.6 fold excess for 50% displacement, the binding signal (TFAM (mature) [8]) was 10 fold excess for 50% free probe and the Ka (TFAM (mature) [9]) was 0.69 ± 0.25 10^9 M^-1. For the same binder, the binding result [10] was “binds” and the Kd (TFAM (mature) [1]; [12]) was 0.65 nM.

TCACAGGGGTGTGGGGACAGGGGTGTGGGGTGACT (structured_DNA) [ILPR G4 extended] was tested, and the Kd (TFAM (mature) [1]; intramolecular G4) was about 26 nM.

TGAGGGTGGGTAGGGTGGGTAA (structured_DNA) [c-myc G4] gave a Kd (TFAM (mature) [1]; label: 5' 32P, intramolecular G4, parallel by CD) of 53 nM.
